Data: article PMC6205950, “4-Chlorophenol Oxidation Depends on the Activation of an AraC-Type Transcriptional Regulator, CphR, in Rhodococcus sp. Strain YH-5B” (Frontiers in Microbiology, 2018)

How the values were obtained:
Experiment in all cases: purified protein
O=[N+]([O-])c1cccc(O)c1 = conditions: 200 μM NADH, 25 μM FAD, 50 mM phosphate pH 7.5
Oc1ccccc1 = conditions: 200 μM NADH, 25 μM FAD, 50 mM phosphate pH 7.5
Oc1ccc(Cl)cc1 = conditions: 200 μM NADH, 25 μM FAD, 50 mM phosphate pH 7.5, text prints 8.7 ± 1.1

**Q.** With “two-component 4-CP monooxygenase (H6-CphA1 and H6-CphA2) (Rhodococcus sp. (in: high G+C Gram-positive bacteria))” as the substance, how does the Km (O=[N+]([O-])c1cccc(O)c1) read?
**A.** 63.2 ± 7.7 µM

**Q.** And the Km (Oc1ccccc1)?
**A.** 9.6 ± 0.9 µM

**Q.** And the Km (Oc1ccc(Cl)cc1)?
**A.** 8.7 ± 1.2 µM

**Q.** What about the kcat (Oc1ccc(Cl)cc1) of the same substance?
**A.** 0.0103 ± 0.00067 s⁻¹
